Results on 16 sequences are retold here after the nanobody polyreactivity screen of Harvey et al. (2022).

This data set in a line: yeast display, Sf9 membrane polyspecificity reagent, FACS + sequencing; frameworks hold sequencing errors. In short, it runs like this:
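Nanobodies from a synthetic yeast display library (Saccharomyces cerevisiae BJ5465), induced 36–48 hours with galactose, were stained 1 hour at 4 °C with 10% biotinylated, detergent-solubilized Sf9 membrane reagent, enriched on streptavidin microbeads, then FACS-sorted. Anti-HA (expression) and streptavidin (reagent binding) fluorescence set low and high (top ~1%) gates. Polyreactivity labels come from the gate of origin. Genes were colony-PCR amplified, MiSeq 2 × 250 sequenced and filtered by CDR length.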
For the sequence “QVQLVESGGGLVQAGGSLRLSCAASGFTFEYYAMGWYRHAPGKERELVAAITSGGTTYYADSVKGRFTISRDNAKNTDYLQMNSLKPEDTAVYYCAAANRFGPYGYWGQGTQVTVSS”, the “polyreactivity (PSR sort gate)” value is on record as “high polyreactivity”.

In the case of “QVQLVESGGGLVQAGGSLRLSCAASGFILYYYAMGWSRQAPGKERELVAAISWSGDSTYYADSVKGRFTISRDNAKNTVYLQMNSLKPEDTAVYYCAATWQLTHRYYWGQGTQVTVSS”, the “polyreactivity (PSR sort gate)” value is “low polyreactivity”.

On to “QDQLVESGGGLVHAGGSLRISCAASGRILYAYPMGWYRQAPGKERELVAAINWSGGSTYYADSVKGRFTISRDNAKNTVYLQMNSLKPEDTAVYYCNRVLDPTNKYYYWGQGTQVTVSS”, for which the “polyreactivity (PSR sort gate)” value is on record as “high polyreactivity”.

With “QVQLVDSGGGLVQAGGSLRLICAASGRNLYAYSMGWYRQAPWQQRELVGAITSGASTYYADSVKGRFTISRDNAKTNVYLQMKRLKPEDTAVYYCAKSVRYYKPGYDYWGQGTQVTVSS”, the “polyreactivity (PSR sort gate)” value is recorded as “low polyreactivity”.

For “QVQLVESGGGLVQAGGSLRLSCAASGFTFNANAMGWYRQAPGKERELVADISLSGGRTYYADSVKGRFTISRDNAKNTVYLQMNSLKPEDTAVYYCAASPDGSFRRFSRVVSGDYWGQGTQVTVSS”, the “polyreactivity (PSR sort gate)” value was “high polyreactivity”.

With “QVQLVESGGGLVQAGGSLRLSCAASGSTFKAYAMGWYRQAPGKERELVAAITKSGGRTYYADSVKGRFTLSRDNAKNTVYLQMNSLKPEDTAVYYCNAAAYVWKSKQRLYVITYDYWGQGTQVTVSS”, the “polyreactivity (PSR sort gate)” value was “high polyreactivity”.

With “QVQLVESGGGLVQAGGSLRLSCAASGRTYVVKAMGWYRQAPGKERELVAAIIRGNTYYADSVKGRFTISRDNAKNTVYLQMNSLKPEDTAVYYCAARYSPYKYYYWGQGTQVTVSS”, the “polyreactivity (PSR sort gate)” value was “high polyreactivity”.

For the sequence “QVQLLESGGGLLQAGASLLLSCAASGNIFYRNAMGWYRQAPGKERELVAAISSGGITYYADSVKGRYTISRDNAKNSVSLQMNSLKPEDTAVYYCAAYIRNWRATYEYWGQGSQVTVSS”, the “polyreactivity (PSR sort gate)” value is on record as “high polyreactivity”.

As to “QVQLVESGGGLVQAGGSLRLSCAASGSTFTPYAMGWYRPAPGKEREFVAAITSIGGSTYYADSVKGRFTISRDHAKFTVYLQMNSLKPEDTAVYYCAADYYEWSLWNDYWGQGTQVTVSS”, the “polyreactivity (PSR sort gate)” value is listed as “high polyreactivity”.

In the case of “QVQLVESGGGLDQAGGSLRLSCAASGRTFRYYAMGWDRQAPGKERELVAAITGSGGSTYYADSVKGRFTISRDIAKNTVYLQMNSLKPEDTAVYYCATRWALRWRGGYWGQGTQVTVSS”, the “polyreactivity (PSR sort gate)” value is on record as “high polyreactivity”.

Regarding “QVQLVESGGGLVQAGGSLRLSCAASGSILSTYAMGWYRQAPGKERELVASISSNAGSTYYADSVKGRFTISRDNAKNTVYLQMNSLKPEDTAVYYCATESYVEGDYWGQGTQVTVSS”, the “polyreactivity (PSR sort gate)” value was “low polyreactivity”.

For “QVQLVESGGGLVQAGGSLRLSCAASGRTFGYYVMGWYRQAPGKERELVAAITYTGGSTYYADSVKGRFTISRDNAKNTVYLQMNSLKPEDTAVYYCATSTYKPTYGYDYWGKGTQVTVSS”, the “polyreactivity (PSR sort gate)” value was “low polyreactivity”.

For “QVQLVESGGGLVQAGGSLRLSCAASGRTFGAYAMGCYRQAPGKERELVAAISIGGRTYYADSVKGRFTISRDKAKNTVYLQMNILKPEDTAVYYCNKVRSPWYDSWGQGTQVTVSS”, the “polyreactivity (PSR sort gate)” value is recorded as “high polyreactivity”.

On to “QVQLVESGGGLVQAGGSLRLSCAASGYTFEVYAMGWYRQAPGKERELVADITTRTGNTYYADSVKGRFTISRDNAKNTVYLQMNSLKPEDTAVYYCAADLQRYWWWYEYWGQGTQVTVSS”, for which the “polyreactivity (PSR sort gate)” value is recorded as “high polyreactivity”.

“QVQLVESGGGLVQAGGSLRLSCDASGRIFLDYVMGWYRQAPGKERELVAAISWSGDRTDYADSVKGRFTISRDNAKNTVYLQMNSLKPEDTAVYYCATTWYFAYSDDYKFDYWGQGTQVTVSS”: the “polyreactivity (PSR sort gate)” value is “low polyreactivity”.

As for “QVQLVESGGGLVQAGGSLSLTWAASGSTFSYYVMGWYRQAPGKETELVAGITRGGRTYYADSENGRFTISRDNAKNSVFLQMNSLKPEDTAVYYCAKDQGGVLELDYWGQGTQVTVSS”, the “polyreactivity (PSR sort gate)” value was “low polyreactivity”.
